Assay results published in the DeepSol protein solubility set.

Assay: soluble on expression in E. coli; label from the status in PepcDB or PDB records
For “SIRFVIDREECFSHKAEYEGDTLHVSFVVIKSDSQWHFNEDGVDLVIHGPTGEQIHDFREQISAKHDFVVQKKGVYRFCFTNKSPYHETIDFDVQLGHFAYYDQHAKDEHFTPLMEQISKLEEALYNIQFEQHWLEAQTDRQAIVNENMSKRAVHKALFESFALIGASFLQVYLLRRLFERKLGMSRV”, the “soluble on expression in E. coli” value was “soluble”.
With “SITKPQNKSAKLVDGELLVKASVESFGLEDEKYWFLVCCELSNGKTRQLKRYYQDFYDLQVQLLDAFPAEAGKLRDAGGQWSKRIMPYIPGPVPYVTNSITKKRKEDLNIYVADLVNLPDYISRSEMVHSLFVVLNNGFDREFERDENGSHHHHHH” the “soluble on expression in E. coli” value was “soluble”.
With “SKGFIDQYPNYSVGLGNLRSLKGDTCNLANDVLVETNTNESFLTPLTGTLGDSLTNDDVRGFDPNRISPWAFTPENRPEALGAANSTGDGSDTAAADSDASNTAAGADSDGSAAKADAASDNQEEAAKKKETHRADQGVNGSHSRLPFNLDYRTVPVLGSWTDGKQEIAEATSSWFKLPKANDNTPLVVVSAAGSIKHKDVNGIVENGQKIVLEYGRSNTGGSLGKAEKLGELDLLDSGIDSTWRNLRIPLSDIPDDADVIRIHAKDTSLDPDEWIAFTPPRVPTMDTLANQFPASTPGLLDWAVPLQFPCQRTFNHYAGVAEIPEYRISADAKGKQSGMNFQDFAGGGVTGIAETINSSYELPSYSKNDWVRDWGSIKMYKLRTNSKGEAPDVATVDTETITRSGLWYPGRMNIDTKVTKN” the “soluble on expression in E. coli” value was “not soluble”.
For “SKKEHVLHCQFSAWYPFFRGVTIKSVILPLPQNVKDYLLDDGTLVVSGRDDPPTHSQPDSDDEAEEIQWSDDENTATLTAPEFPEFATKVQEAINSLGGSVFPKLNWSAPRDAYWIAMNSSLKCKTLSDIFLLFKSSDFITRDFTQPFIHCTDDSPDPCIEYELVLRKWCELIPGAEFRCFVKENKLIGISQRDYTQYYDHISKQKEEIRRCIQDFFKKHIQYKFLDEDFVFDIYRDSRGKVWLIDFNPFGEVTDSLLFTWEELISENNLNGDFSEVDAQEQDSPAFRCTNSEVTVQPSPYLSYRLPKDFVDLSTGEDAHKLIDFLKLKRNQQEDD”, the “soluble on expression in E. coli” value was “soluble”.
For “SKKQLDMSQKKTLTIDSELRFDELSLDTVRDFEKLAPFGMDNKKPVFLLKDFKVSQARVMGQNGAHLKLKLEQDGQALDLVAFNMGSQLQEFQQAQHLELAVTLSVNQWNGATTLQ”, the “soluble on expression in E. coli” value was “not soluble”.
In the case of “SKLNQNTMLVGKKVVLVPYTSEHVPRYHEWMKSEELRHLTASEQLTLQQEYEMQCSWCEDEDKCTFIVLDAEKWQAQPRPPEESCMVGDVNLFLTDLEDPTLGEIEVMIAEPSYRRQGLGTEASLLIMSYGVTKLGLTKFEAKIGQENEPSIRMFQKLHFKQVAMSNVFQEVTLRLAVSEPERKWILEQTSHMEERPYRTRKAEPVTATLSEQKSWNCPLPRPDGCMGDTSAVSSVCARLS”, the “soluble on expression in E. coli” value is reported as “soluble”.
With “SKLYDINNEIFEDLGAEKRELIQPNDVPQLLKDAIVSVEDRRFYKHIGVDPIRIIGSALSNVKNGGLQGGSTLTQQLIKLSYFSTKESDQTLKRKAQEAWMAVRLEREKSKEEILTYYINKVYMANGFYGMETAAENYYGKHLSELDLPQTALLAGMPQAPNSYDPYTKP” the “soluble on expression in E. coli” value was “not soluble”.
In the case of “SKQNPLKRKRNDEITEEKVVLLMAMHKEDDEHQHTKPSPPSWEILCLVGPYMDPESLAVASCVSTTWSKCFSSEDLWKSLPATRHSIFAKAITKEGAKPAWLSYKRLISEAESAAKRRRNNQPAEPKISLSDLVFIVHVSAGSKEAVVVKQGKDLVFGSNERFQIEADVRDSGFTADMKDVSMSWNVVLRNYERMFLMSETVIKSLDSMIGWFTDELPGTKNRYCDGSNLVGEVKPSFNEDVLDKVVFAIADSRNWKSLFVDDVLRYLQCFLVD”, the “soluble on expression in E. coli” value is reported as “soluble”.
In the case of “SKSGAQTPKSPPEHYVQETPLMFSRCTSVSSLDSFESRSIASSVQSEPCSGMVSGIISPSDLPDSPGQTMPPSRSKTPPPPPQTAQTKREVPKNKAPTAEKRESGPKQAAVNAAVQRVQVLPDADTLLHFATESTPDGFSCSSSLSALSLDEPFIQKDVELRIMPPVQENDNGNETESE”, the “soluble on expression in E. coli” value is reported as “soluble”.
For “SKVTSLTACLVDQSLRLDCRHENTSSSPIQYEFSLTRETKKHVLFGTVGVPEHTYRSRTNFTSKYNMKVLYLSAFTSKDEGTYTCALHHSGHSPPISSQNVTVLRDKLVKC”, the “soluble on expression in E. coli” value was “soluble”.
For “SKYGLQDSDEEEEEHPSKTSTKKLKTAPLPPASQTTPLQMALNGKPAPPPQVEKKGQLEHHHHH”, the “soluble on expression in E. coli” value was “soluble”.
With “SLADHMLKRACEWMRFLGYTVYYPECHYDNDILKTCIEKKLVLLTRDIELYKRYALSVYIDSVNINEQIIQITRQFPPDPGKFMTKCPDCGSDLILMRSNGLDIPDKIKKSFSMVRYCNKCSKAFWPGTHYIKIIEKINRLLK” the “soluble on expression in E. coli” value was “not soluble”.
For “SLARMSRRSRGAAGAQSVVKPETPMAQVLHQFNYCPCQYLEQNWIVPKQPWLLNLDGWRDNPNFNLWCLEEWALAPVPETAFNKPHHSLALLPPDALSTLMLTIGGALHSFAMRQVVLKKPKQCLNNVFGLDIARFLIQQGPMLLSQWPKGWQKALPDVMKEDEVERHMLKQGYAWMKFILASSSHDILLRWQFKLDQSLSQVKENTSWLVEEQRDLAYRLTKKIAKQVIPQWFHLLK”, the “soluble on expression in E. coli” value was “soluble”.
In the case of “SLDDMTEFKNMPKVELHAHLSGSLSPETIKLIMESDETRAEEIMKKYKLEKPENMTGVFDCFPVIHAILRKPEAIRIAIRQTIKEFEEDNCVYLELRTSPKETDFMTYEDYLQVCIESFEAAKHEFPRIKTFLIVSLDRRMPFETAAHILGLIGEAQQRTNVIVGVELSGDPHLDGRRLLKLFVAARRFHGLGITIHLAEVLQNMADVEDYLNLRPDRIGHGTFLHTDPYTEYLTNKYKIPLEICLSSNVYSKTTTNYRNSHFNYWRKRGVPVFICTDDKGVIPGATLTEEYYKAAITFDLSTEELIGINQDALLNSFAYKYNVTDLTETFRKINNNVLD”, the “soluble on expression in E. coli” value is reported as “soluble”.
In the case of “SLDEITAVVRTAARELVSADGATFVLRENGNCFYADEDAIAPLWKGLRFPLERCISGWVMLNRQAAVIEDIYQDQRIPVEAYRPTFVQSLAMVPIRGEDPIGAIGTYWARRH”, the “soluble on expression in E. coli” value is reported as “not soluble”.
For “SLDMQHRIRQLFQASIETKQQALEVLPPYIEQASLVMVNALLNEGKILSCGNGGSAGDAQHFSSELLNRFERERPSLPAVALTTDSSTITSIANDYSYNEVFSKQIRALGQPGDVLLAISTSGNSANVIQAIQAAHDREMLVVALTGRDGGGMASLLLPEDVEIRVPSKITARIQEVHLLAIHCLCDLIDRQLFGSEEEG”, the “soluble on expression in E. coli” value was “soluble”.
In the case of “SLENLATAPVNQIQETISDNCVVIFSKTSCSYCTMAKKLFHDMNVNYKVVELDLLEYGNQFQDALYKMTGERTVPRIFVNGTFIGGATDTHRLHKEGKLLPLVHQCYLKKSKRKEFQ”, the “soluble on expression in E. coli” value is reported as “soluble”.
In the case of “SLEYNLTTKEVEMVNVTASWDEGIGELFEKVKQNDSERKMANGDDGLFFSNFSLHVTPVLKNISFKLEKGELLAIAGSTGSGKSSLLMMIMGELEPSDGKIKHSGRISYSPQVPWIMPGTIKDNIIFGLSYDEYRYTSVVNACQLEEDITVFPNKDKTVLGDGGITLSGGQRARISLARALYKDADLYLLDSPFSHLDVTTEKDIFESCLCKLMVNKTRILVTSKLEHLKKADKILLLHEGHCYFYGTFSELQGEKPDFSSQLLGSVHFDSFSAERRNSILTETFRRCSVSSGDGAGLGSEG”, the “soluble on expression in E. coli” value is reported as “soluble”.
With “SLGTLPPELQNTCVARGKLPLLLDLDNTLLHAQAASATGCDVRLQDWIDPYGEPELYRFELPCNRKTYYMKLRPHLRTFLKKLEPFYEMSVYTNATQEYADIVIAILDGNRQLFQDRIVARDSGFRGEASENKAVRRLYEGMDKRCIVAFDDRQNIWTDLPLTHVVKAQHYDFFDSHKTELNAYYPPLSNGIEGMTAPDVLGNRQNED” the “soluble on expression in E. coli” value was “soluble”.
With “SLILHAQAKHGKPGLPWLVFLHGFSGDCHEWQEVGEAFADYSRLYVDLPGHGGSAAISVDGFDDVTDLLRKTLVSYNILDFWLVGYSLGGRVAMMAACQGLAGLCGVIVEGGHPGLQNAEQRAERQRSDRQWVQRFLTEPLTAVFADWYQQPVFASLNDDQRRELVALRSNNNGATLAAMLEATSLAVQPDLRANLSARTFAFYYLCGERDSKFRALAAELAADCHVIPRAGHNAHRENPAGVIASLAQILRF” the “soluble on expression in E. coli” value was “soluble”.
For “SLINNLSTHSYWPNRGQLEVQGLTVKYTEAGRAVLNDISFSVDGGQSVGLLGRTGSGKSTLLSALLGLNYTEGEMFIDGVSSSSMPLEAWRKAFGVVPQKVFILTGTFRMNLDPYGRYSDDELWRVAEEVGLKSVIEQFPDKLDFELKDGGSVLSNGHKQLMCLARSILSKARILLLDEPSSYLDPITLQVLRKTLKQSFSGCTVILSEHKVEPLLECDSFLMIEKSSVKSYDSIQKLMNEMSDLKQAISPAD”, the “soluble on expression in E. coli” value was “not soluble”.
In the case of “SLKINQEEDTVSSEKNKLCDNNNNNNMVHTRHIYNVCELNKCLRENKLIPYNNIYKMKHLYLNILDTFDENILKHVNKAHLFIDSVIQKKKNILIHSMAGISRCSSIILSYVSKKNKKGIEYNFNLLKSKYPFAHPNENFYRQLLLYEKMNYTLDGCTDYHNIYK”, the “soluble on expression in E. coli” value is reported as “not soluble”.
For “SLKNTGYILALCLTASGHVLAHDVWITGKQAENNVTAEIGYGHNFPSKGTIPDRRDFFENPRLYNGKETITLKPASTDYVYKTESASKDNGYVLSTYMKPGYWSRTSSGWKPVSREGRNDVAYCEFVTKYAKSFIPGEQQMPAQLYQSPTGHELEIIPLSDISRFSENVKLKVLYKTSPLAGAIMELDSVSYLTSSRHTHAVEHKHPVHKAELTFVTNEDGIVTVPSLHIGQWLAKVQNKKSFQDKSLCDETVDVATLSFSRN”, the “soluble on expression in E. coli” value was “not soluble”.
In the case of “SLLCIALALGILVKYQNSQDVSSVKPDYFIDKQEDLISLNKDHYEIGIFQENEFDNNKSVSILEQKIQEIDDLNTSLNEQNLSSVEQNLSLEQNQSLEQNFILKDTNLTQDQNLTFNEDIHLNKISKKPKLAIIIDDMANASQVRGLKALNLKLNPSFFPPDKNHSETPKLALKFDFYMVHLPLAAINYNKPELDTLNPNDSKERIFKKIKQIKKDFKDLRYINNHTGSLFTSNEEAMRKLYEVLKNQNIFFVDSKTIGNSKANKIAKELNVPYIQRDVFLDNEDDVNYVKKQLESAVKLTQKKGFVIAIGHPRKNTFKALEQSKDLLKSVDLVYLSEIYGK”, the “soluble on expression in E. coli” value is reported as “soluble”.
With “SLLSETSTALGLQELSNITMPVIFNEPLSFLQRLTEYMEHTYLIHKASSLSDPVERMQCVAAFAVSAVASQWERTGKPFNPLLGETYELVRDDLGFRLISEQVSHHPPISAFHAEGLNNDFIFHGSIYPKLKFWGKSVEAEPKGTITLELLDHNEAYTWTNPTCCVHNIIVGKLWIEQYGNVEIINHKTGDKCVLNFKPCGLFGKELHKVEGYIQDKSKKKLCALYGKWTECLYSVDPATFDAYKKNDKKNTEEKKNSKQTSSSEESDEMPVPDSESVFIIPGSVLLWRIAPRPPNSAQMYNFTSFAMVLNEVDKEMESVIPKTDCRLRPDIRAMENGEIDLASEEKKRLEEKQRAARKNRSKSEEDWKTRWFHQGPNPYSGAQDWIYSGSYWDRNYFNLPDIY” the “soluble on expression in E. coli” value was “soluble”.
In the case of “SLNGKYATLKDVAKLAGTTASTVSYVLNDSKERYISDEMRRRVLEAAKDLNYVKCSVASSLKGEKRKIIAVLVPQFSNQFFTRIILAIENVADQFDYVLTIYNTFDDPKREKVIINRMAQHRMDGYIIIPTYEGVKNTEQLRKIGIPMVVMDRPLEGIDDFIWVTTNNYQCGYKGAHYLALKGHRNIAFIGWNSRINDLDSRKNGFWDALAASGITSEEAIVIDGEFSEEDGYKMTKNLLKTRPDITAIFYGYNVQAQGGVRYLMKENIEIGKDISVMLIGSPEWAVTGYNNFTHIEQDEYNLGKSAATILFSIINGENQENIQNIIQDCSLYEGNSVYDITKEG”, the “soluble on expression in E. coli” value is reported as “soluble”.
